Where a chain is given by its changes, count along the chain named.
B1: MAdCAM antibody Clone ID 32 of Table 6 (scFv) (scFv)
scFv: QVQLVQSGAEVKKPGASVKVSCKASGYTLTDYYMHWVRQAPGQGLEWMGIINPSGGSTSYAQKFQGRVTMTRDTSTSTVYMELSSLRSEDTAVYYCAREEYSSSSGYFDYWGQGTLVTVSSGGGGSGGGGSGGGGSGGGGSDIQMTQSPSSLSASVGDRVTITCRASQGISSWLAWYQQKPGKAPKLLIYAASSLQSGVPSRFSGSGSGTDFTLTISSLQPEDFATYYCQQSYSTPLTFGQGTKVEIK
B2: MAdCAM antibody Clone ID 37 of Table 6 (scFv) (scFv)
scFv: QVQLVQSGAEVKKPGASVKVSCKASGYTFSKHFVHWVRQAPGQGLEWMGWMNPNSGNSGYAQKFQGRVTMTRDTSTSTVYMELSSLRSEDTAVYYCARGEGGYYYYGMDVWGQGTLVTVSSGGGGSGGGGSGGGGSGGGGSDIQMTQSPSSLSASVGDRVTITCRASQSISSWLAWYQQKPGKAPKLLIYAASTLQSGVPSRFSGSGSGTDFTLTISSLQPEDFATYYCQQSYSTPWTFGQGTKVEIK
B3: MAdCAM antibody Clone ID 17 of Table 6 (scFv) (scFv)
scFv: EVQLLESGGGLVQPGGSLRLSCAASGFTFSDSAMHWVRQAPGKGLEWVSAISGSGSTIYYADSVKGRFTISRDNSKNTLYLQMNSLRAEDTAVYYCVSDIAVAGHWYFDLWGRGTLVTVSSGGGGSGGGGSGGGGSGGGGSDIQMTQSPSSLSASVGDRVTITCRASQSISTFLNWYQQKPGKAPKLLIYAASRLEGGVPSRFSGSGSGTDFTLTISSLQPEDFATYYCQQANSFPLTFGPGTKVDIK
B4: MAdCAM antibody Clone ID 16 of Table 6 (scFv) (scFv)
scFv: EVQLLESGGGLVQPGGSLRLSCAASGFTFEDYAMHWVRQAPGKGLEWVSYLNSDGGSTSYADSVKGRFTISRDNSKNTLYLQMNSLRAEDTAVYYCAKDYCTNGVCAFDYWGQGTLVTVSSGGGGSGGGGSGGGGSGGGGSDIQMTQSPSSLSASVGDRVTITCRASQSISTYLNWYQQKPGKAPKLLIYDASNLETGVPSRFSGSGSGTDFTLTISSLQPEDFATYYCQQSYTIPITFGQGTRLEIK
B5: MAdCAM antibody Clone ID 35 of Table 6 (scFv) (scFv)
scFv: EVQLLESGGGLVQPGGSLRLSCAASGFSFSSYTMNWVRQAPGKGLEWVSFITSSSRTIYYADSVKGRFTISRDNSKNTLYLQMNSLRAEDTAVYYCARDRRGDYGDSWYFDLWGRGTLVTVSSGGGGSGGGGSGGGGSGGGGSEIVMTQSPATLSVSPGERATLSCRASQSVRNYLAWYQQKPGQAPRLLIYGASTRATGIPARFSGSGSGTEFTLTISSLQSEDFAVYYCQQYGSSPLTFGGGTKVEIK
B6: MAdCAM antibody Clone ID 33 of Table 6 (scFv) (scFv)
scFv: QVQLVQSGAEVKKPGASVKVSCKASGYTFTSYGISWVRQAPGQGLEWMGWMHPKSGDTGLTQKFQGRVTMTRDTSTSTVYMELSSLRSEDTAVYYCARDTPYYYYGMDVWGQGTTVTVSSGGGGSGGGGSGGGGSGGGGSDIQMTQSPSSLSASVGDRVTITCRASQSISSWLAWYQQKPGKAPKLLIYAASSLQSGVPSRFSGSGSGTDFTLTISSLQPEDFATYYCQQSYSVPITFGQGTKVEIK
B7: MAdCAM antibody Clone ID 31 of Table 6 (scFv) (scFv)
scFv: QVQLVQSGAEVKKPGASVKVSCKASGYTFTSYYMHWVRQAPGQGLEWMGIINPSGGSTSYAQKFQGRVTMTRDTSTSTVYMELSSLRSEDTAVYYCARDTGYSYGRYYYYGMDVWGQGTLVTVSSGGGGSGGGGSGGGGSGGGGSDIQMTQSPSSLSASVGDRVTITCRASQSIGRWLAWYQQKPGKAPKLLIYDASNLQSGVPSRFSGSGSGTDFTLTISSLQPEDFATYYCQQSYSIPITFGQGTKVEIK
B8: MAdCAM antibody Clone ID 36 of Table 6 (scFv) (scFv)
scFv: B7 scFv with S31G, Y32H, L120T, Q245G
B9: MAdCAM antibody Clone ID 28 of Table 6 (scFv) (scFv)
scFv: QVQLVQSGAEVKKPGASVKVSCKASGYTFTDYFLHWVRQAPGQGLEWMGWMNPTSGNTGYAQKFQGRVTMTRDTSTSTVYMELSSLRSEDTAVYYCAREGEGSGFDYWGQGTLVTVSSGGGGSGGGGSGGGGSGGGGSDIQMTQSPSSLSASVGDRVTITCRASQGINSWLAWYQQKPGKAPKLLIYDASNLETGVPSRFSGSGSGTDFTLTISSLQPEDFATYYCQQSYSTPLTFGGGTKVEIK
B10: MAdCAM antibody Clone ID 14 of Table 6 (scFv) (scFv)
scFv: QVQLVQSGAEVKKPGSSVKVSCKASGYTFTDYHIHWVRQAPGQGLEWMGGIVPRSGSTTYAQKFQGRVTITADESTSTAYMELSSLRSEDTAVYYCAKDESSGWYYFDYWGQGTLVTVSSGGGGSGGGGSGGGGSGGGGSDIVMTQSPLSLPVTPGEPASISCRSSQSLLHSNGYNYLDWYLQKPGQSPQLLIYSAYNRASGVPDRFSGSGSGTDFTLKISRVEAEDVGVYYCMQALQTPLTFGQGTKVEIK
B11: MAdCAM antibody Clone ID 38 of Table 6 (scFv) (scFv)
scFv: EVQLLESGGGLVQPGGSLRLSCAASGFTFGSYSMSWVRQAPGKGLEWVSAIGTGGGTYYADSVKGRFTISRDNSKNTLYLQMNSLRAEDTAVYYCAKGTPYYYYYGMDVWGQGTMVTVSSGGGGSGGGGSGGGGSGGGGSDIQMTQSPSSLSASVGDRVTITCRASQPLSNWLAWYQQKPGKAPKLLIYAASSLQSGVPSRFSGSGSGTDFTLTISSLQPEDFATYYCQQAISFPLTFGGGTKVEIK
B12: MAdCAM antibody Clone ID 39 of Table 6 (scFv) (scFv)
scFv: QVQLVQSGAEVKKPGASVKVSCKASGYTFTSYYMHWVRQAPGQGLEWMGWMNPNSGNTGYAQKFQGRVTMTRDTSTSTVYMELSSLRSEDTAVYYCARDLGYYDSSGYFGAFDIWGQGTTVTVSSGGGGSGGGGSGGGGSGGGGSDIQMTQSPSSLSASVGDRVTITCQSSEDISSSLNWYQQKPGKAPKLLIYAASSLQIGVPSRFSGSGSGTDFTLTISSLQPEDFATYYCQQTYSTPYTFGQGTKVEIK
B13: MAdCAM antibody Clone ID 15 of Table 6 (scFv) (scFv)
scFv: QVQLVQSGAEVKKPGSSVKVSCKASGYTFTNYYMHWVRQAPGQGLEWMGGIIPIVDRVKYAQKFQGRVTITADESTSTAYMELSSLRSEDTAVYYCAKGRYTVNYYYGMDVWGQGTTVTVSSGGGGSGGGGSGGGGSGGGGSDIQMTQSPSSLSASVGDRVTITCQANQDISNYLNWYQQKPGKAPKLLIYRASKLEAGVPSRFSGSGSGTDFTLTISSLQPEDFATYYCQQSSEIPYSFGQGTKLEIK
B14: MAdCAM antibody Clone ID 29 of Table 6 (scFv) (scFv)
scFv: QVQLVQSGAEVKKPGASVKVSCKASGYTFTSYYMHWVRQAPGQGLEWMAWMNPNSGNTGYAQKFQGRVTMTRDTSTSTVYMELSSLRSEDTAVYYCARDYDFWSGSLGYWGQGTLVTVSSGGGGSGGGGSGGGGSGGGGSDIQMTQSPSSLSASVGDRVTITCRASQGISNYLAWYQQKPGKAPKLLIYAASSLQSGVPSRFSGSGSGTDFTLTISSLQPEDFATYYCQQSYSTPWTFGQGTKVEIK
B15: MAdCAM antibody Clone ID 21 of Table 6 (scFv) (scFv)
scFv: EVQLLESGGGLVQPGGSLRLSCAASGFTFSNAWMSWVRQAPGKGLEWVSTIVGNGGATYYADSVKGRFTISRDNSKNTLYLQMNSLRAEDTAVYYCARDNPLRWQGMDVWGQGTLVTVSSGGGGSGGGGSGGGGSGGGGSDIQMTQSPSSLSASVGDRVTITCRASQDISNYLNWYQQKPGKAPKLLIYAASSLQSGVPSRFSGSGSGTDFTLTISSLQPEDFATYYCQQSYSIPPTFGPGTKVDIK
B16: MAdCAM antibody Clone ID 27 of Table 6 (scFv) (scFv)
scFv: QVQLVQSGAEVKKPGASVKVSCKASGYTFTGYYIHWVRQAPGQGLEWMGWMNPNSGNTGYAQKFQGRVTMTRDTSTSTVYMELSSLRSEDTAVYYCARDPGFLGYCSGGSCYDGWFDPWGQGTLVTVSSGGGGSGGGGSGGGGSGGGGSDIQMTQSPSSLSASVGDRVTITCRASQSISSYLHWYQQKPGKAPKLLIYAASSLQSGVPSRFSGSGSGTDFTLTISSLQPEDFATYYCQQSYTAPYTFGQGTKLEIK
B17: MAdCAM antibody Clone ID 1 of Table 7 (IgG) (antibody, V domains shown)
VH: EVQLLESGGGLVQPGGSLRLSCAASGFTFSSYGMHWVRQAPGKGLEWVAVISDDGSDKYYADSVKGRFTISRDNSKNTLYLQMNSLRAEDTAVYYCTTSKYYYYYGMDVWGQGTTVTVSS
VL: DIQMTQSPSSLSASVGDRVTITCQASQDISKSLNWYQQKPGKAPKLLIYAASSLQSGVPSRFSGSGSGTDFTLTISSLQPEDFATYYCQQGYSTPLTFGGGTKVEIK
notes: IgG format

target: T1, human MAdCAM expressed on cells (human, UniProt Q13477 19-382); assay: cell binding
T1 construct: whole, on cells; also called MADCAM1
T1 sequence (looked up): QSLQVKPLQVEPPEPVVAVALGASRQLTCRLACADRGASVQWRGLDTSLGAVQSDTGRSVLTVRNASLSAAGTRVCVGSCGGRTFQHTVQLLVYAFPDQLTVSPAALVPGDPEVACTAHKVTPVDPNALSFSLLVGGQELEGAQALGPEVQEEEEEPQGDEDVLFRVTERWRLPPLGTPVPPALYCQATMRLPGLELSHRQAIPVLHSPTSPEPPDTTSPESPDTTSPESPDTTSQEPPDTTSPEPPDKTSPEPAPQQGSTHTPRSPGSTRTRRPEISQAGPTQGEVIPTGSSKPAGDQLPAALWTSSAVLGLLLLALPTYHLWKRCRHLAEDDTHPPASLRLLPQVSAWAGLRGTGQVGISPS

| Binder | binding result |
| --- | --- |
| B1 | binds |
| B2 | binds |
| B3 | binds |
| B4 | binds |
| B5 | binds |
| B6 | binds |
| B7 | binds |
| B8 | binds |
| B9 | binds |
| B10 | binds |
| B11 | binds |
| B12 | binds |
| B13 | binds |
| B14 | binds |
| B15 | binds |
| B16 | binds |

target: T2, mouse MAdCAM expressed on cells (mouse, UniProt Q61826 22-405); assay: cell binding
T2 construct: whole, on cells
T2 sequence (looked up): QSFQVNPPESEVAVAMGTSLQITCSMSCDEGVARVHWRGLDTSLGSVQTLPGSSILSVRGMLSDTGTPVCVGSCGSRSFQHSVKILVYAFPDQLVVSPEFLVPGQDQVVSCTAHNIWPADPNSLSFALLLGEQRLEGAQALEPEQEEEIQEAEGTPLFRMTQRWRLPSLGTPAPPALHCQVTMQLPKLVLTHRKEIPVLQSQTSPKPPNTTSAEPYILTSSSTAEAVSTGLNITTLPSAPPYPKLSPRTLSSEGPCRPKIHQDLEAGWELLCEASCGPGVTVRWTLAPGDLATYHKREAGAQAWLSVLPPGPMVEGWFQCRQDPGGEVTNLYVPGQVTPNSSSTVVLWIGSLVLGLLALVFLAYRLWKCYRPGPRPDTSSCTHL

| Binder | binding result |
| --- | --- |
| B1 | no binding |
| B2 | no binding |
| B3 | no binding |
| B4 | no binding |
| B5 | no binding |
| B6 | no binding |
| B7 | no binding |
| B8 | no binding |
| B9 | no binding |
| B10 | no binding |
| B11 | no binding |
| B12 | no binding |
| B13 | no binding |
| B14 | no binding |
| B15 | no binding |
| B16 | no binding |

target: T1, human MAdCAM expressed on cells; assay: cell binding; remark: another data set of the same source

| Binder | binding result |
| --- | --- |
| B17 | binds |

target: T2, mouse MAdCAM expressed on cells; assay: cell binding; remark: another data set of the same source

| Binder | binding result |
| --- | --- |
| B17 | binds |

Source: patent US20200392228A1 (PANDION OPERATIONS, published 2020)
